Data taken from patent publication US20220323619A1 (TELIX INTERNATIONAL, published 2022).

What was measured:
[1] = target: T1, human FcγRI (Sino Biological, His-tagged) (human, UniProt P12314 16-288, limits assumed); assay: Biacore single cycle, His-tagged receptor captured on anti-His CM5 chip, antibody analyte; 1:1 kinetics
T1 construct: Bought product; also called FcgRI; not shown: His tag

[2] = target: T2, human FcγRIIa 167H (Sino Biological, His-tagged) (human, UniProt P12318 34-218, limits assumed); assay: Biacore single cycle, His-tagged receptor captured on anti-His CM5 chip, antibody analyte; steady state
T2 construct: not shown: His tag
T2 sequence (looked up): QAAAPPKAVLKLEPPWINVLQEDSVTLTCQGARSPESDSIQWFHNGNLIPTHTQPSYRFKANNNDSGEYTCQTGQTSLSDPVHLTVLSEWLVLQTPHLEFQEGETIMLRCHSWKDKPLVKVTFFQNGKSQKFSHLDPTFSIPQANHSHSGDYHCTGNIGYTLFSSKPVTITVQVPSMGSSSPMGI

[3] = target: T3, human FcγRIIIa 176V (Sino Biological, His-tagged) (human, UniProt P08637 17-208); assay: as above
T3 construct: not shown: His tag
T3 sequence (P08637 17-208 F176V limits assumed): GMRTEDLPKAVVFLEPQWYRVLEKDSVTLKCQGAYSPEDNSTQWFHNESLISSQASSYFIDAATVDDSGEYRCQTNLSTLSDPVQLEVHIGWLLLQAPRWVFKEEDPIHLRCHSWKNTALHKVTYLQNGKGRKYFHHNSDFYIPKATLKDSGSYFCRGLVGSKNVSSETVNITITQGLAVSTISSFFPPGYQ

[4] = target: T4, human FcγRIIIa 176F (Sino Biological, His-tagged) (human, UniProt P08637 17-208); assay: as above
T4 construct: not shown: His tag
T4 sequence (P08637 17-208 limits assumed): as the sequence (P08637 17-208 F176V limits assumed) above, with V160F counted along it

[5] = target: T5, human FcγRIIa 167R (Sino Biological, His-tagged) (human, UniProt P12318 34-218, limits assumed); assay: as above
T5 construct: not shown: His tag
T5 sequence (looked up): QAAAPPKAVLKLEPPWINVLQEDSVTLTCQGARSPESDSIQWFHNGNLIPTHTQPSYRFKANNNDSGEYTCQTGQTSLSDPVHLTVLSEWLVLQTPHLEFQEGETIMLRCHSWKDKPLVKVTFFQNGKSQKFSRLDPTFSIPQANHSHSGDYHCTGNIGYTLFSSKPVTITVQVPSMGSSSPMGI

[6] = target: T6, human FcγRIIb (Sino Biological, His-tagged) (human, UniProt P31994 43-217, limits assumed); assay: as above
T6 construct: not shown: His tag
T6 sequence (looked up): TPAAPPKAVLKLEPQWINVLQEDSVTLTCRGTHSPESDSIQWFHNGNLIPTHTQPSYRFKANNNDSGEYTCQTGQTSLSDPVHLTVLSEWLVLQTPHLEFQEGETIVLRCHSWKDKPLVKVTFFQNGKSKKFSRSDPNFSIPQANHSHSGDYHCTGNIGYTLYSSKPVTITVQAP

[7] = target: T7, human FcγRIIIb (Sino Biological, His-tagged) (human, UniProt O75015 17-200, limits assumed); assay: as above
T7 construct: not shown: His tag
T7 sequence (O75015 17-200 limits assumed): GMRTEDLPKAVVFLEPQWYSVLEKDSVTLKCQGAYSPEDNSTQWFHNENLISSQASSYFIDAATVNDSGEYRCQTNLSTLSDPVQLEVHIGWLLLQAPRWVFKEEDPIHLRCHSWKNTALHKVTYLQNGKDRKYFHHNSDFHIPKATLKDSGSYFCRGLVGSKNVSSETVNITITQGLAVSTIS

[8] = target: T8, prostate-specific membrane antigen (PSMA) (R&D Systems) (UniProt Q04609 44-750); assay: Biacore multi-cycle kinetics, antibody captured on Protein G chip, PSMA analyte 1.5625-25 nM
T8 construct: Soluble analyte in the Biacore assay
T8 sequence (Q04609 44-750 limits assumed): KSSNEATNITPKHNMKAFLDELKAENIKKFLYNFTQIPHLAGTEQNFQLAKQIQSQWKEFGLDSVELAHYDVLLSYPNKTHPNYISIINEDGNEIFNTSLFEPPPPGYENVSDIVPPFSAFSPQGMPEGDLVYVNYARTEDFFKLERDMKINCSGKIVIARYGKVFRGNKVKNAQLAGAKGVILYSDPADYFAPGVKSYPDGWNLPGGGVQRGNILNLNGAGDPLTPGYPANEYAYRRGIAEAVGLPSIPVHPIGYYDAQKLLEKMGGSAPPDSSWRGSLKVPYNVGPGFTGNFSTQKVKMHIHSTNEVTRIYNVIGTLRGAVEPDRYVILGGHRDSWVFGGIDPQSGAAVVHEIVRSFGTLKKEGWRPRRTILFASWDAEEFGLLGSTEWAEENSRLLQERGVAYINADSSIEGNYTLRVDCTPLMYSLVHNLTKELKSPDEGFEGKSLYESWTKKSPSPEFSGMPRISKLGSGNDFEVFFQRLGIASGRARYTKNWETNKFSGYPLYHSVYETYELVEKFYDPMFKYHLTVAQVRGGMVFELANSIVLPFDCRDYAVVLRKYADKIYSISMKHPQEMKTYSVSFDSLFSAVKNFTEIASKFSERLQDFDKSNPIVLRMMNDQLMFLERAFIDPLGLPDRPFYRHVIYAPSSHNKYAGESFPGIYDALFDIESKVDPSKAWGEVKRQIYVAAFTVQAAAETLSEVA

Measured: binding result

T1 sequence (P12314 16-288 limits assumed): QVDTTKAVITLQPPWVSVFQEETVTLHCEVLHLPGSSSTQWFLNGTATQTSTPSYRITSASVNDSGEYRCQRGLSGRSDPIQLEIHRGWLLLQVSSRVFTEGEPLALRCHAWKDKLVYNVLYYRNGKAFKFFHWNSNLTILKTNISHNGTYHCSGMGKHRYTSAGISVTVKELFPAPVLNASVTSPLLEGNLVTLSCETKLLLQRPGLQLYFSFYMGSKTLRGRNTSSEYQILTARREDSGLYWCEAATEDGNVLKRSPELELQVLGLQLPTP

B1: ANT4044 IgG1 (H310A, H435Q) (antibody)
heavy: not shown
light: DIQMTQSPSTLSASVGDRVTITCKASQDVGTAVDWYQQKPGQAPKLLIYWASTRHTGVPDRFSGSGSGTDFTLTISRLQPEDFAVYYCQQYNSYPLTFGQGTKVDIKRTVAAPSVFIFPPSDEQLKSGTASVVCLLNNFYPREAKVQWKVDNALQSGNSQESVTEQDSKDSTYSLSSTLTLSKADYEKHKVYACEVTHQGLSSPVTKSFNRGEC
notes: also called ANT4044-IgG1-2M; ANT4044-FcRn
binds: [1] | [2] | [3] | [4] | [5] | [6] | [7]

B2: ANT4044-A2 IgG1 (antibody)
heavy: not shown
light: DIQMTQSPSTLSASVGDRVTITCKASQDVGTAVDWYQQKPGQAPKLLIYWASTRHTGVPDRFSGSGSGTDFTLTISRLQPEDFAVYYCQQYNSYPLTFGQGTKVDIKRTVAAPSVFIFPPSDEQLKSGTASVVCLLNNFYPREAKVQWKVDNALQSGNSQESVTEQDSKDSTYSLSSTLTLSKADYEKHKVYACEVTHQGLSSPVTKSFNRGEC
notes: also called ANT4044-A2 expressed as unmodified IgG1
binds: [8]

B3: ANT4044-A2 IgG1 (H310A, H435Q) (antibody)
heavy: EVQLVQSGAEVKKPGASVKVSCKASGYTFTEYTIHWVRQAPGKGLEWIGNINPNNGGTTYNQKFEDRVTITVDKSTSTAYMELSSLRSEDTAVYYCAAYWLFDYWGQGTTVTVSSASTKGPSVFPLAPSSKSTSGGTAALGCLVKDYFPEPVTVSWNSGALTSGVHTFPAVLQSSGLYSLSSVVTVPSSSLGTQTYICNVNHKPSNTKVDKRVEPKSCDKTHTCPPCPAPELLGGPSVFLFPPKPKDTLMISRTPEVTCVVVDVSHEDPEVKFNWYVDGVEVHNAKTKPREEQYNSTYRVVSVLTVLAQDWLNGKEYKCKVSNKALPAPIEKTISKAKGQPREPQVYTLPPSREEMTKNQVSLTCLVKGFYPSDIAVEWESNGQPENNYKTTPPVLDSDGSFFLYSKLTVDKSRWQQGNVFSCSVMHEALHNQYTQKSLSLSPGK
light: DIQMTQSPSTLSASVGDRVTITCKASQDVGTAVDWYQQKPGQAPKLLIYWASTRHTGVPDRFSGSGSGTDFTLTISRLQPEDFAVYYCQQYNSYPLTFGQGTKVDIKRTVAAPSVFIFPPSDEQLKSGTASVVCLLNNFYPREAKVQWKVDNALQSGNSQESVTEQDSKDSTYSLSSTLTLSKADYEKHKVYACEVTHQGLSSPVTKSFNRGEC
notes: also called ANT4044-A2 RADmAb IgG1
binds: [8] | [1] | [2] | [3] | [4] | [5] | [6] | [7]

B4: ANT4044-A2 IgG4 (S228P, L235E, H310A, H435Q) (antibody)
heavy: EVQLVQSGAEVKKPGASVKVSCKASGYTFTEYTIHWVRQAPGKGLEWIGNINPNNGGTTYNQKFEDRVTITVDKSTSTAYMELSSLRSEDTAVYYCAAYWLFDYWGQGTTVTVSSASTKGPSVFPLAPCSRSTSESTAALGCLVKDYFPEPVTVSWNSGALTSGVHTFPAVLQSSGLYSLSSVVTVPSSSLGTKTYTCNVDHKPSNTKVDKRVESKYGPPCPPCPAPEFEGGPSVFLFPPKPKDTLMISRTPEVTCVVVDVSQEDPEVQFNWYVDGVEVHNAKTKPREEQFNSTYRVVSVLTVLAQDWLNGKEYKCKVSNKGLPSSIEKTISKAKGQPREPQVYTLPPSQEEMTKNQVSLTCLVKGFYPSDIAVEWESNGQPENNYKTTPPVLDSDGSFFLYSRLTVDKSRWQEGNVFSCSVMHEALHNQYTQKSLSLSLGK
light: DIQMTQSPSTLSASVGDRVTITCKASQDVGTAVDWYQQKPGQAPKLLIYWASTRHTGVPDRFSGSGSGTDFTLTISRLQPEDFAVYYCQQYNSYPLTFGQGTKVDIKRTVAAPSVFIFPPSDEQLKSGTASVVCLLNNFYPREAKVQWKVDNALQSGNSQESVTEQDSKDSTYSLSSTLTLSKADYEKHKVYACEVTHQGLSSPVTKSFNRGEC
notes: also called ANT4044-A2 RADmAb IgG4
binds: [8]
